Assays:
[1] = system: Apiosporin from a lysate of Apiospora arundinis (Isolate AAU773); test: Octet measurement of sdAbs capturing Apiosporin from fungal lysate; format: binding
Protocol: The Aim was to establish that selected antibody fragments could capture their target antigen Apiosporin from a lysate of WT Apiospora arundinis (Isolate AAU773), whereas no antigen would be bound specifically to the antibody fragments when KO Apiospora arundinis were applied in the binding assay.
The sdAbs produced as in example 9 were applied to amine reactive biosensors from Sartorius for the Octet instrument. First the reagents were prepared according to the AR2G kit instructions. For a standard immobilization scouting assay 200 μL/well of water was added to column 1 of a 96-well plate. The 200 μL/well 1 M ethanolamine pH 8.5 were added to column 4. 200 μL/well assay running buffer into column 5. Here the provided Kinetics Buffer (dilute the 10× Kinetics Buffer 10-fold in PBS) was used. 200 μL/well of the sdAbs were added to column 6 at a concentration of 500 nM. The sdAbs were prepared to be immobilized. Protein was prepared in each of the 10 mM acetate buffers at pH 4, 5 and 6. A starting ligand concentration of at least 20 μg/mL is recommended. The ligand concentration may be decreased as low as 5 μg/mL if the immobilization time is extended; some performance loss is expected at lower ligand concentrations. Prepare 500 μL at each pH.
As Apiosporin is present in an unknown concentration in the crude extracts, it is not possible to estimate a Kd from the sensorgram. Also, it is not possible to fit the raw data to a nice binding curve when a ligand concentration is not known. However, in order to allow fitting a concentration of 100 nM and 10 nM (resulting in almost identical fitting curves) of Apiosporin were inserted. The same fitting settings were used for all (data correction aligning to the association step with baseline correction to dissociation, Savitzky-Golay filtering to smoothen the curves, 1:1 model graph fitting to association and dissociation separately). […] It thus establishes that there is a normal association/dissociation between Apiosporin and sdAbs for the WT, but no association/dissociation for the KO as expected. Thus, it is seen that the antibodies are specific against the compound produced from the NRPS.

Apiosporin = test: Immunoprecipitation of Apiosporin from fungal extract by sdAbs with mass spec identification; format: binding, Apiospora arundinis; settings: Protein A SpinTrap
Protocol: 50 μl of the partial pure sdAbs prepared in example 9 and 150 μl fungal extract (resuspended in PBS with 500 mM NaCl and 0.2% Tween20) were incubated overnight at 4° C. The mixed sdAb and fungal extract were purified on a SpinTrap Protein A from Cytivia accoridng to manufactures instructions except that the elution was performed into 50% AcN 5% formic acid.
The same immune precipitations were analysed by HPLC-DAD-HRMS using a Hitachi Elite LaChrom HPLC system, equipped with a phenyl-hexyl 100 Å (150×4.6 mm Kinetex 5 μm, Phenomenex) column kept at 40° C. and coupled by a 5:95 flow splitter to a high-resolution mass spectrometer (compact qTOF, Bruker) with an electrospray source (Capilary: 4500 V; end plate offset 500 V; Dry gas 4.0 L/min, 200° C.) operated in positive mode. The injection volume was set to 30 μL and separated using a 1.2 mL/min gradient initiating at 10% solvent A (acetonitrile (HiPerSolv CHROMANORM, VWR) with 0.1% v/v formic acid (MS-grade 98%, Sigma-Aldrich)) in 90% solvent B (water (HiPerSolv CHROMANORM, VWR) with 0.1% v/v formic acid (MS-grade 98%, Sigma-Aldrich)), increasing linearly to 100% solvent A over 17 minutes and held for 6 minutes. After 0.5 minutes from sample injection, 2 μL calibrant (10 mM NaOH and 26 mM formic acid (MS-grade 98%, Sigma-Aldrich) in 1:1 water (HiPerSolv CHROMANORM, VWR): isopropanol) was injected directly to the mass analyser and used for internal spectra calibration. Mass spectrometric instrument control, data recording and data processing was performed using Compass DataAnalysis 4.2 SR2 (Bruker).

[2] = system: Apiospora arundinis (Isolate AAU773); test: Immunofluorescent staining of Apiospora arundinis with sdAbs; format: cell-based; settings: primary sdAb 70 nM, ALFA tag secondary (Alexa 647)
Protocol: Apiospora arundinis (Isolate AAU773) were grown in liquid culture and spotted on glass cover slips where they were immobilized using tape. The fungi were fixed by addition of 3.7% paraformaldehyde for 10 min. Then blocking with 5% skim milk in PBS before staining with the primary sdAbs (70 nM) overnight, secondary antibody (ALFA sdAb-FluoTag-X2 from Synaptic Systems, the antibody was labelled with Alexa flour 647 and used at a dilution of 1:500 for 3 h, washing 3×5 min with PBS, then staining for 2 min with calcofluor white stain (calcofluor white 1 g/l, evans blue 0.5 g/l), then wash 1×5 min with PBS.

[3] = WT fungal extract, 1:1 model fit, Apiosporin concentration assumed 100 nM

Molecule	Association/dissociation (binding to ligand) on Octet ([1]; KO fungal extract)	Association/dissociation (binding to ligand) on Octet [1, 3]	Immunoprecipitation of Apiosporin, identified by mass spec (Apiosporin)	Immunofluorescent staining of septa ([2]; KO fungi)	Immunofluorescent staining of septa ([2]; WT fungi)
AP2: single domain antibody (sdAb) selected against Apiosporin, SEQ ID NO: 11 (protein) VHH: EVQLLESGGGLVQPGGSLRLSCAASGFRDSDEDMGWVRQAPGKGLEWVSSIETPDGSTYYADSVKGRFTISRDNSKNTLYLQMNSLRAEDTAVYYCASQPVYSYHFDYWGQGTLVTVSSAAA	absent in the KO	binding to a ligand present in the WT extracts	identification of Apiosporin after immunoprecipitation		
AP7: single domain antibody (sdAb) selected against Apiosporin, SEQ ID NO: 31 (protein) VHH: EVQLLESGGGLVQPGGSLRLSCAASGFRDSDEDMGWVRQAPGKGLEWVSSIEGPSGSTYYADSVKGRFTISRDNSKNTLYLQMNSLRAEDTAVYYCASVTWWTHPFDYWGQGTLVTVSSAAA			identification of Apiosporin after immunoprecipitation		
AP1: single domain antibody (sdAb) selected against Apiosporin, SEQ ID NO: 6 (protein) VHH: EVQLLESGGGLVQPGGSLRLSCAASGFRDSDEDMGWVRQAPGKGLEWVSSIYSYNGSTYYADSVKGRFTISRDNSKNTLYLQMNSLRAEDTAVYYCASDRGGYNSFDYWGQGTLVTVSSAAA	absent in the KO	binding to a ligand present in the WT extracts	identification of Apiosporin after immunoprecipitation	No clearly staining in septa	Staining is clearly shown in septa between two hyphae
AP3: single domain antibody (sdAb) selected against Apiosporin, SEQ ID NO: 16 (protein) VHH: EVQLLESGGGLVQPGGSLRLSCAASGFRDSDEDMGWVRQAPGKGLEWVSSIGGYNGSTYYADSVKGRFTISRDNSKNTLYLQMNSLRAEDTAVYYCASEGYYTSAFDYWGQGTLVTVSSAAA	absent in the KO	binding to a ligand present in the WT extracts			
AP4: single domain antibody (sdAb) selected against Apiosporin, SEQ ID NO: 21 (protein) VHH: EVQLLESGGGLVQPGGSLRLSCAASGFRDSDEDMGWVRQAPGKGLEWVSSIDAEDGSTYYADSVKGRFTISRDNSKNTLYLQMNSLRAEDTAVYYCASDSGDWFSFDYWGQGTLVTVSSAAA	absent in the KO	binding to a ligand present in the WT extracts			

— patent publication US20260242430A1, “NOVEL FUNGAL DERIVED COMPOUNDS” (Aalborg Universitet, priority 2023, published 2026)
